B1: Pp364: Physcomitrella patens CYP74E divinyl ether synthase, 532 amino acids, recombinantly expressed in E. coli (protein, listed as Physcomitrella patens)
chain: MDRTLVLTCTTTCSHSAFRQSALPSNTSISVRLGTCSVRTQKRRTVVASLGNIETTSTSTVGQESNLPLREIPGSYGIPYLSQLLDRWTFFYREGEPQFWQSRMAKYGSTVIRSNMPPGWFWTDSRCIMLLDQKSYPTVFDYDKVDKYKAFAGTIMPSTEYNGGYEVCAYLDASDKKHEQLKGYCFELLKFSSSKWAREFHTAISETFNQWEGKLAQKTPALINPTLPESLFSFVINALTTARFDDSSIPDAEKPVCGDLQKWAGFQLMPVIRTGAPIYIEEMLHVAPIPASLTKGGYDKMVVFLQKYAAETLSIAEKFGLSQDEAVHNLIFFLILNAHGGFCRFLPVILREVAKNGQLQADLREEVRAAVKASGSDQVTMKAVMNDMPLVASTVFEALRFDPPVPFQYARAKKDFIIESHDARYQIKTGDFLGGVNYMVSRDPKVFTDRPNEFNARRFMGPEGDKLLAHLVWSNGRQTDETTVYTKQCAGKEIVPLTGRLLLAELFMRFDSFNIEGLEMEATFTSLTPRSD
B2: Pp291 cDNA: complete cDNA encoding the Physcomitrella patens allene oxide synthase, used to transform barley and Arabidopsis (nucleic acid, listed as Physcomitrella patens)
DNA: ATGGCAGTCCCTTCATCCAAGCTGCCGTTGAAGGCGATTCCTGGAGACTATGGAGTCCCCTACTTCGGTGCCATAAAGGATCGACTAGACTACTTTTGGTTGCAGGGGGAGGAGCAGTTTTACCGAAGCCGGATGGCCAAGTACAATAGCACGGTGTTTCGTGTCAACATGCCGCCTGGCCCTCCAATTTCCGAACACCCTCAAGTCATCTGCCTCTTGGATCAGAAAAGCTTTCCAATTCTGTTCGACGTTAGCAAGGTTGAGAAAAAGGACGTGTTCACAGGAACATACATGCCGAGTGTGAGCTTCACCAGCGGGTACCGCGTTTGCTCCTACTTGGATCCCTCTGAGGAACGCCACACGAAGCTCAAGCAATGGTGCTTTGAAGTCATTGCGATGAACGGGCGGAACTTTCTTCCCGAGTTTCACAAGTCGATTGAAGAGTCGATGGTGCTCTGGGAGACGAGTCTGGCCAAGGGCGAGAAGACTAGCGTATCGGATGAGGTGAAACAGTTCGCGTTTAATTTCCTGATGCGCGCTGTATGCCATCACGACCCCGCTGCGCCTGGAGAATACAGCTTAGGGCGTAATGGTGGCCCGTATGCAACCGCCTGGGCAAATCCCCAGCTCGCTCCGATTGCAGGACAGACGGGTCTCCCCCATGTCGTGGAGGAGCTCGTGTTACACACCGTCCCACTCCCCTCTGCCCTGGTCAAGAAGAACTACGATGCCCTCTACAATTTCATCAAAAACTACGCCACCGAGGCGCTGGATAGGGCTGAAGCTATGGGCATCGAGCGCAATGACGCCACTGCCAACCTGCTGTTCTTCCTTTGCTTTAACGCCTACGGCGGATTCAGCATCTTCTTCCCCCTCATCACTATCCTCATTTCTTCATGCGGTCCGGAGCTCATGCACGATCTCCACGACGAAGTCACCAAGGCCGTCGCCGCCACAGATGGGAAAGTCACTCTTCAATCCATCGAGAACATGCCATTGGTGAAGTCCGTCGTCTACGAAGCTTTCCGATTCAAGCCCCCAGTGCCATACCAATACGGCAAGGCCAAGTTCGACTTCACCATAGAGAACCACGAAAACTCCTTCGAGGTCAAGAAGGGAGAAATGCTGTATGGTTATCAACCTATCGTGATGCACGACCCCAAGGTCTTCTCGGACCCAGATCAGTTTCTACCTCGACGATTCATGGGCCCCGACGGCGAGAAGCTCATCAAATACATCTTCTGGTCCAATGGTTACGAGACTGACGAGCCGACTACCGCAAACAAGCAGTGCGCCGGAAAGGACTTGGTGGTCACAATGGCGCGAGCATTCGTCGCAGAAATGTTCTTGAGATATAAAGAGTATACCCTGACCATGGAGGGCGCAGGAAATGCGACCAAGGTTTTCTTTTCCGATCTCAAAAAGTGA
modifications: CDS (1)..(1428) Pp291 Allenoxid-Synthase
notes: complete cDNA encoding the Physcomitrella patens allene oxide synthase, used to transform barley and Arabidopsis
B3: Pp291: Physcomitrella patens CYP74A allene oxide synthase, 475 amino acids, recombinantly expressed in E. coli (protein, listed as Physcomitrella patens)
chain: MAVPSSKLPLKAIPGDYGVPYFGAIKDRLDYFWLQGEEQFYRSRMAKYNSTVFRVNMPPGPPISEHPQVICLLDQKSFPILFDVSKVEKKDVFTGTYMPSVSFTSGYRVCSYLDPSEERHTKLKQWCFEVIAMNGRNFLPEFHKSIEESMVLWETSLAKGEKTSVSDEVKQFAFNFLMRAVCHHDPAAPGEYSLGRNGGPYATAWANPQLAPIAGQTGLPHVVEELVLHTVPLPSALVKKNYDALYNFIKNYATEALDRAEAMGIERNDATANLLFFLCFNAYGGFSIFFPLITILISSCGPELMHDLHDEVTKAVAATDGKVTLQSIENMPLVKSVVYEAFRFKPPVPYQYGKAKFDFTIENHENSFEVKKGEMLYGYQPIVMHDPKVFSDPDQFLPRRFMGPDGEKLIKYIFWSNGYETDEPTTANKQCAGKDLVVTMARAFVAEMFLRYKEYTLTMEGAGNATKVFFSDLKK

Tests used:
[1] = system: pathogenic fungus or bacterium (Blumeria graminis, Pythium spec., Botrytis cinerea, Pseudomonas syringae and others); assay: Pathogen infection of transgenic Arabidopsis thaliana; format: in vivo; details: transgenic plants, sense orientation; fluorescence and light microscopy
[2] = system: Blumeria graminis f.sp. hordei; assay: Transient transformation of barley leaf segments, powdery mildew penetration; format: cell-based, barley cv. Pallas; details: for haustorial growth of the fungus in transformed cells: Calcofluor staining, fluorescence microscopy; for effect on total number or number of attacked GFP-expressing cells: compared with control cDNA experiments; for average % RPE value (relative penetration efficiency): deviation from average penetration efficiency of the control; for reduction of penetration efficiency by Blumeria graminis f.sp. hordei: on average, six experiments, versus control cDNA (TR), 48 hours after inoculation
Protocol: Barley cv. Pallas leaf segments were transformed with a cDNA of Pp291 or Pp364 which were present in the GFP expression vector (green fluorescence protein). The leaves were subsequently inoculated with the pathogenic fungus Blumeria graminis f.sp. hordei (powdery mildew of barley), and the result was analyzed after 48 hours by means of light microscopy and fluorescence microscopy. The penetration into GFP-expressing cells was assessed by detecting haustoria in live cells and by assessing the fungal development in precisely those cells. […].
The transient transformation of barley was carried out with a method which had already been described for the biloistic introduction of cDNA into epidermal cells of barley leaves (Schweizer P et al. (1999) Mol Plant Microbe Interact 12:647-54; Schweizer P et al. (2000) Plant J 2000 24:895-903). Tungsten particles with a diameter of […] (particle density 25 mg/ml) were coated with cDNA together with plasmid DNA of the vector pGFP (GFP under the control of the CaMV 35S promoter) as transformation marker. To this end, the following amount of cDNA and reporter plasmid were used for coating purposes for each bombardment: 1 mg of pGFP and 2 mg of cDNA. To prepare the microcarriers, 55 mg of tungsten particles (M 17, diameter […]; Bio-Rad, Munich) were washed twice with 1 ml of autoclave distilled water and once with 1 ml of absolute ethanol, dried and taken up in 1 ml of 50% strength glycerol (approximately 50 mg/ml stock solution). The solution was diluted with 50% strength glycerol to 25 mg/ml, mixed thoroughly before use and suspended in an ultrasonic bath. To coat the microcarriers, 1 mg of plasmid, 2 mg of cDNA (1 mL), […] of tungsten particle suspension (25 mg/ml), […] of 1 M Ca(NO3)2 solution (pH 10) per bombardment were combined dropwise with constant mixing, left to stand for 10 minutes at RT and centrifuged briefly, and […] of supernatant were removed. The remainder, which contained the tungsten particles, is resuspended (ultrasonic bath) and employed in the experiment.
Barley primary leaf segments approximately 4 cm in length were used. The tissue was placed on 0.5% Phytagar (GibcoBRLt Life Technologiest, Karlsruhe) supplemented with […] benzimidazole in Petri dishes (diameter 6.5 cm); immediately prior to the particle bombardment, the edges were covered with a stencil with a rectangular slot 2.2 cm×2.3 cm in size. One after the other, the dishes were placed on the bottom of the vacuum chamber (Schweizer P et al. (1999) Mol Plant Microbe Interact 12:647-54) above which a nylon mesh (mesh size 0.2 mm, Millipore, Eschborn) had been inserted on a perforated board (5 cm above the bottom, 11 cm underneath the macrocarrier, see hereinbelow) to act as diffuser in order to diffuse particle aggregations and to slow down the particle stream. For each bombardment, the macrocarrier (plastic sterile filter holder 13 mm, Gelman Sciences, Swinney, UK) which had been attached at the top of the chamber was loaded with […] of DNA-coated tungsten particles (microcarrier, see hereinbelow). The pressure in the chamber was reduced by 0.9 bar using a membrane vacuum pump (Vacuubrand, Wertheim), and the surface of the plant tissue was bombarded with the tungsten particles at a helium gas pressure of 9 bar. The chamber was aerated immediately thereafter.
To label transformed cells, the leaves were bombarded with the plasmid (pGFP; pUC18-based vector, CaMV 35S promoter/terminator cassette with inserted GFP gene; Schweizer P et al. (1999) Mol Plant Microbe Interact 12:647-54; provided by Dr P. Schweizer, Schweizer P, Institute of Plant Genetics IPK, Gatersleben, Germany). Before carrying out the bombardment with another plasmid, the macrocarrier was cleaned thoroughly with water in each case. […]

[3] = HPLC analysis of DNPH-derivatized volatile aldehydes; format: biochemical; details: substrates 13-HPOTE and 9-HPODE, DNPH derivatives
Source text: The reaction of hydroperoxides with DES gives rise to divinyl ethers which hydrolyze in an acidic environment to give aldehydes. These aldehydes are volatile. In order to identify these aldehydes which are formed, they can be derivatized with DNPH (Kohlmann et al.; 1999, Eur. J. Biochem. 260, 885-895). The hydrazones thus formed are no longer volatile and can be identified with the aid of an HPLC analysis via their retention time.

Molecule | resistance to pathogens in comparison with the wild type [1] | haustorial growth of the fungus in transformed cells [2] | effect on total number or number of attacked GFP-expressing cells [2] | average % RPE value (relative penetration efficiency) [2] | reduction of penetration efficiency by Blumeria graminis f.sp. hordei [2] | formation of aldehydes in reaction mixture [3]
Pp364 cDNA: complete cDNA encoding the Physcomitrella patens divinyl ether synthase, used to transform barley and Arabidopsis | increased resistance | no haustorial growth takes place | no effect | −30% | 44% | 
B1 |  |  |  |  |  | aldehydes are formed
B2 | increased resistance | no haustorial growth takes place | no effect | −30% | 44% | 
B3 |  |  |  |  |  | No aldehydes were detected

Reference: patent US7786348B2, “Methods for producing pathogen-resistant plants with allene oxide synthase and divinyl ether synthase, and the amino acid and nucleotide sequences thereof” (BASF Plant Science GmbH, priority 2001, dated 2010)
